Test results as given in the DeepSol protein solubility set.

assay: soluble on expression in E. coli; label from the status in PepcDB or PDB records

Soluble on expression in E. coli, not soluble:
MGSDKIHHHHHHMFEVFNYEDIICARGNREMPWKPSFQMNVYYYLIDGLLIDSGPYSLAKEAIEFFNAHIIEQVFLSHIHEDHAGMAYWLQEKMQIPIYLHEGSLEEARREPELAKYRLGIWGRRKAFNAEPINDTIKTGSYVFDVIDSPGHCPYHKVLHEKTKGWLFSGDLLNNLKPKSVMFDENTNDTILSIRKVLDLDFTTVFCAHTGIRKNAKNLFLKKLNYLLELQKDTQVLRNRGFSNTEIVEQLFPGPDPISSLSGGEFSSYYLVSTL, MGSDKIHHHHHHMFGYVKINKMDLTFREYDYYKAYYCGLCKYLKRNHGEISRFSLNYDITFLIVLLTAVYNPESISTEEVCIVNPFKKKKVITNDITEYAASMNILLTYYKLEDNLMDDKRIKDKLAYYIYKNKLKLAYEKYPEKAEYIKQQLNELNKLEKDKNINIDEVSSIFGNIMGEVFVYKKDENERNLRMIGFNIGKYIYLLDAYEDLDEDFKKGRYNPFIEYIDKNDELKEKVKKIIVTSLGFLARGIDNLNLNKNVGIIENIIYSGVYLRYINILESRGGKNVQ, MGSDKIHHHHHHMFKESPIIRRVSRQIMVGNVPVGGDAPITVQSMTNTLTTDVAATVAQIKALEAVGADIVRVSVPTMDAAEAFREIKKQVNVPLVADIHFDYRIALKVAEYGVDCLRINPGNIGNENRIRSVVECARDNNIPIRIGVNGGSLEKDIQEKYTEPTPEALLESAMRHVDILDRLNFNEFKVSVKASDVFLAVESYKLLAKQIDNPLHLGITEAGGLRSGSVKSSVGLGLLLAQGIGDTIRISLAADPIEEIKVGFDILKSLKLRSRGINLIACPSCSRQEFDVVSTVNALEQRIEDIMTPMDVSIIGCIVNGPGEAMVSDLGLTGSSKKSGYYLDGIRQKERFDNTDLVDQLEQRIRAKARSMSERLDEKNKIDILTKD, MGSDKIHHHHHHMFKTAVGHSNDPDSLSAIEEVLQQCVSSLGGDIPKAGILFSAIDFEHALILQQIHQFFPGIELIGGTTDGEISSVLEFQQDSITLMLFCSDEVEINAGVGRKVSVDPIAVTKQAVEQAKAKTTETPRLCLTHPESLTISGVSILHGLKLALGQNVPIFGGLAGDQSRYQNTYQFFQTEVLSDSVPILLFSGTILFSHGVASGWHPIGQISQVTKVDKNILYEIDGKPALDFYHHYLGLLPPSMEYPLAVFDQNRDNFYIRAPIAYNQDSGSITFFADIPDRAVIQIAEACYEDILAASKASFMNALNNYPGAEPSAVLFFSCVARRQILGTRAKEEYQNTKLCLTYHLPGCGFYSYGEIAPIDGMSQTQFHNETFVTLILGTR, MGSDKIHHHHHHMFLMVIINPTDGMSAMSAPLDTDQLQTFIAIVDTGSFTKAAGRVFKTQSAVSMQMRRLEERIGKQLFIKDGRGNRLTAEGEKLLNYARRIVRLNSEAIAAFDDNRLEGTLRIGTPDDYADRYMPEIIGRFAKTHPNVELYIVCEPSSDLAEKMARGELDIALVTHNPATRQSDVMRTEPLCWVASANHPLRDDAPVPLAVGRRDCNWRQLACSALDADGRDYQILFTSWSSTVVAAAVLAGLAVSVLPESALRTGMKVLGQLDGFPPLPPVQIGIMKRPGMSPSLMNAITDHIAACLDNINPTAIEDDMDGETKTYSRYYPRLRAGHMIPGW, MGSDKIHHHHHHMFLSIGTLPEDSRFHDAMVYFDMAHLSGTDRSQMLLLPEVVDDYVGPDNPVRFIEAFIDGLDLQASGFIRVEPKLTSRPGYDPADLLKLYLYGYLNRVRSSRRLEAETHRNIEVIWLLRRLTPDHKTIANFRRVNHAAFRQVFREFVILCRQLDLFGRELLAVDGTRIKAVNNKERNFTRAALTKFIREADERLTEYMKRLDNGDAQEENTGGGGPRAKNLAEKITAIKGKRDRHKALLDELDRTGEDQISLTDMDSRAMARMTKVGVGYNIQLAVDVKHKLIAEQEVSNQVVDMGLLTQATQAAMDNLGVEQIEVVADRGYFKVEDIEACEKAGITAYVPKPLRGAAVREGFFSKDEFRYNAEKDVYVCPAGEHLSPRYEKKTRDLKLVEYCNREACRSCDLKAHCTHGYRRVGRVENEAVLDRMAARLAARPEVLDQRRETVEHPFGTIKQWMYQGSFLMRRLENVQGEFSLTALAYNIRRAITLVGVAGLIGAVRA, MGSDKIHHHHHHMFSMTKDWREQRILDSSEFTHADWLQAAQRIVILGRLNEDELTRLFELATLFLADKSITGAQGFEITDAVKQSIALQACLPILNLSLEWYAGWSAIIIYPGSYKSETTTVDELGIVHEGSQHRSGEAWLRGPVILSWKDAKHSGERDGHNVVIHEFVHKLDMLNGRANGFPPLQPDMDPVRWTEIMTRDFEDFQSHHKSGFDRYGATNPAEFFAVLSEVFFETPQKLIDAYPDIYEIMVKFFRQTPLEPRP, MGSDKIHHHHHHMFSYEKVQTLNQLELFVYKYVTSHLEECKTMTIRDLSTQSHVSSTTILRFLKKMGFEGFSDFKYVLRHRNDRTPASELSQDLGPIGQFLKQTATTEYTEKMEEVARVVAQSNTRLFFGMGSSGSMAQYGARILSNYGMLTLAITDPFQPQPISERDYSKTLIILLSVSGETEGVLTQANYYRQNGAKIVAITANSTSTLAQIADYSLTYDIPENKVGSLNFTSQIPVVYLLEQLGEKTSKLVYHPEISHEI, MGSDKIHHHHHHMFTQVYEEIRQLTISKVLDFYDHEVRRLDEAARQTKYQKMSASPFLFFRGSSHLFYYDVTRIPLGFDTPPETPTWIQGDLHFENFGVHGNAKGEIIYDVNDFDEGYLGSYLYDLIRMAVSVQLFAEEAGYDAKPAIAAYVQHYLDDLRQYAKGKNPSKVCFTTDNTKGPIRKLIKKAEKKKAELLGERTTVVDGQRRFADLPDMKRLDSSAYTAIEAVWPEYIASIDAEDRQEDGFYAIKDIVYKLDSGTASIGLERYYILVEGTGGEHEDLILEMKQAQSSVPSLFVPAYLQEVETVHQGRRIVTSQKAMQAHEDPYLGYVTMHGKEYYVRERSPYKKKLKAKHIKSQDDLENVLSIQGQITAKIHARADMDAGVDVDILHHHADVVIIESIGVSDAEFIRQIQRWSSAYAARTTLDFQVFLSWLANR, MGSDKIHHHHHHMFVNRKEELEFLERKWREEGAQLIIIYGRRRIGKTMLLKEFLKGKRGIYFLATADSMAENIRGLAEKFTKLTRREYFMEVRDFRRLFRYLAEEMGKERVAVVLDEFQYLISLDPGILSVLQKIWDEYLKDTGIFLILCGSSIGMMERTLEYKSPLYGRRTGAWKVKPFDIRGIAEMFPERSMEELVKIYAVFGGVPFYLDLIRNLSVENAIKERILKKGEILYEEPEFLLREELREPRVYKLILKGLALGYESLGELINFTGLDRGNLSKYLDTLERLELVGYELPYGKRKRGQYYIRDNFFNFWFRFVYPNLADLELGLVNEVWERISGEINAYYGKMFERLVREMLRLRILDFGQKGVSRWWHRGEEIDAIAELKDKLLFVEVKWKDLNRREARKILKDLKRKSERFEGEKEFLLIAKRIEDKEEGMLDLEDLEKVIRNL, MGSDKIHHHHHHMFVTELRFECFADTSIEAAEKAINNFLEALRANGQVLGREFAVAFNDGEFRVRLLIPERSSLANRYNSPWVKVALNGLTEAKILAPREKFIGQDINSEASNTHQPSWQLLYTSYVHMCSPLRNGDNLLPIPLYQIPATFNGDHKRMIKWQSEWQACDELQMAAATKAEFAALDEISNTDSDLFRRGWDLRGRIEYLTKIPTYYYLYRVGGESLNAELSRPCPKCGSLEWKLAEPLLDMFQFRCEPCRIVSNLSWDHQ, MGSDKIHHHHHHMFYIMPAWENEVSELNRDLLKNLTNVFVGGKKSVKLAVLNFLPNLRYLLHVNGLTNYEYWNIWDAILGIERVDGMPLGPEALDLPQGVRLINAMTSMDAYEGSKLYARIIRSSEGYLSEVQFMNPQNRHTDVYDDRGFKVCTNYYENEEVVRQEWFNECNQLIVRYEPKAKVAVQILGNYSNFEKRQYKTLNELLMEFVNSFFEEHFDPTQDRLIASTNLKIRPLMVEIQNRLPVTYLLDHLGPMDTTTVETLQPQIQGAFKFVVPNYVIFQQIKSSVAEPAQKVLKLGYPYGTENRLGNSNEESKMFIYWHIDESTNDTTCSQFAEKLIDYSLEHENVGLQVAALNDRQANLVFNYLCQALKNKYTFLDLEQDQDLIWKIVFGREDTDAIGKLLMQLKFRLGMNLKHDPETNPQKLADSARFKKINWKKVMEDITETIIRVNSRDNEIYRNLARSRVLVDVGSPYNTRMQFNAISAGIPQIVNVDSPFIINRKNGWIINEKQSLSQGLDFYLQELGNWNKSLVATTKYMEQLTLKRQADWWERRTKYEK, MGSDKIHHHHHHMGAGELLQDWRVHALRIEDEVSRVVIGQPQTIRLITVALFARGHVLLEGGVGVGKTTVLRAFARVVGGEFERVEGTIDLMPGDLVYHTYVDAEGRPRIDPGPLLRHGERLTTFFFNEINRARPQVQSLLLRAMAERSVWAFDREYRFPHMTVFADRNKVEKEETFELASAARDRFLFELGMPTPTEPDVRRSLVFDAAFHDVDSLLARLPPAIVQWEQLNQVGAAIQESVQSSETIERYVLDIWQATETPQRFGIALDGVDMDRLILAGASPRGMSALLRAARVVAWLAGRSHLVPEDIHAVLMPALGHRVFFTPIYELRRQELAEALMTQIMNRLAVP, MGSDKIHHHHHHMGEHFLLEMVDITKEFPGVKALDRVQLKVRKGSVHALMGENGAGKSTLMKILIGMYKPNEGKIIFDGEEVTFNSINDALDKGISMIHQELSPIPEMTVAENIFLGREPTFGKSGLVDNKKLIEMTRNLLESLEINIDPRKKMGELSIANTQMIEIAKAISFHSKLVIMDEPTSAITEKEVAQLFKMIESLKKKGVGIIYITHKMSELDEIADDISVFRDGKYIGTDTAKNLTRDDLIKMMVGRELNQIFDKPEPKLGEVILSVKSLTKQDYFEDVSFEVRKGEIVGFAGLMGSGRTEVLETIFGVKEAESGEIFVNGQKARIKSPQDAVKNNMGFLTEDRKLTGLFLPLSVRENMITVNIDKYINMGWLNGKRVKKDCEQQKQKLYIKTPSIEQIVENLSGGNQQKVLLARWLLKNPDILFLDEPTRGIDVGAKSEFYNLIFELASQGKAIVVVSSEMAEILGLCDRILVMHEGKVTGELTREEANQEKIMQYATGQAKMAKKLHVHNNFEQTVTANKIEIG, MGSDKIHHHHHHMGGRGSGKTRAGAEWVSGMALGLPPFAGKPSGHIALVGETFNDAREVMVDGPSGILSVSRLVRPRYEASRRRLIWDNGAVATLFSSEDPDSLRGPQFDAAWCDELAKWKNPQETWDMLQFGLRLGDNPRQVVTTTPRAVPLLKALLTDRTVSMTHMRTAENAGNLAEGFMQTIARRYAGTRLGRQELDGELVEERPGALWSRDRIEQCFEENPPPLARIVVAVDPPASSGKASDACGIVVAGIDAEGVGHVLADESMTMAKPHQWARRAIALYHTHEADAIVAEVNQGGEMVAAEDPSVPVLKRRASRGKWLRAEPVAALYEQGRVRHAGRFPALEDEMCDFAPEGLSSGRSPDRLDALVWALGELMLGADHKPRIRRFG, MGSDKIHHHHHHMGIRVSTISRCIGHLEDEIGVALFLRRPNGVTLTFAGEQFLVRARRAMTEVRHAICEAGIAGTGRNGFVRLGLLSSLAAPFPAMLIKIYCAAYPGVRILYSEGGAADHRAALQHHRLDLAFLPHPEKAEGCDALGLWEERLFAAMAQDDPLTRHDVVTWDDLRERHFIFSEVPPGPELLDYLTERLVGFGFLLKADLLTVYRDTVMRVIANGSDVTVIGEARVSHPIQGVACRPITGESLFFHAVWLPTNDNPAFRRFLSLAKVLSKQCSVCELKEGLAGPSGEDHSVMDETSASLERKSRLLKIVSERCATCLLKKAIAD, MGSDKIHHHHHHMGKGFTGAILTVMGVKSHIATTTGKTVINDRMVTIHFHSETLLNTEGEVPGDWLRLWFPHESRPGKLYQRAYTLTNVDADAGTFDLAFVLHEPLGPASAWATRCEAGESLEVMRYPGIPFAIPDPAPRGFLFLGDLTSYPAICSILETLDGEIPATAYLIAHDPLDYTFDFPQGEHITAQWISNEQSFIDHIADTDYTDFYTWIGAESSETRAAKKHLQTHAGMPKTHMNAQGYWNKGRAMGKSN
